# Assay results published in patent US11819540B2, “Methods for treating and preventing neutrophil-derived net toxicity and thrombosis” (CHILDREN'S MEDICAL CENTER CORPORATION, priority 2011, dated 2023).
# Entries after “also recorded” stand apart in the source; their conditions may differ.
# Test system: blood clots (fibrin and NET scaffold)
# Experiment: Clot formation in recalcified blood with or without PAF-activated neutrophils (thrombolysis)
# Format: cell-based, human
# Conditions: tPA 25 μg/mL
# Description: Fibrin polymerization was induced in blood by recalcification and incubated either in the absence (medium) or presence of neutrophils preactivated by PAF to induce NET formation (neutrophils+PAF). Samples were treated with DNase to digest extracellular traps or tPA for fibrin digestion. […] (Scale bar, 1 cm.) The graph presents quantification of the clots by weighing. […] Data are presented as mean±SEM, n=4; (ANOVA; ***P<0.001). The first bar in each x-axis category represents the untreated samples, the second bar represents the samples treated with DNase, the third bar represents the samples treated with tPA, and the fourth bar represents the samples treated with tPA and DNase.
# The relative susceptibility of NETs and fibrin to serve as scaffolds for blood clots to thrombolysis was examined (FIG. 20). Neutrophils were prestimulated with platelet-activating factor to release NETs with recalcified blood under stirring conditions. Two-hundred-fifty microliters of 5×10^6 neutrophils per milliliter in RPMI medium were activated by platelet activating factor (50 μM Calbiochem) at 37° C. under static conditions to induce NET formation. Control samples were 250 μL medium alone, 250 μL of unstimulated neutrophils, or 250 μL of 50 μM PAF in medium. After 10 min, 250 μL of recalcified (40 mM CaCl2) ACD anticoagulated blood was added. The mixture was incubated under stirring conditions (1,000 rpm) at 37° C. using an Eppendorf Thermomixer. Indicated samples were supplemented with tPA (25 μg/mL, Baxter) or DNase 1 (100 U/mL, Worthington Biochem). After 20 min, the blood was passed through a 100-μm cell strainer to isolate the clot. Images were acquired and the clot was determined. Thereafter, 10-μm frozen sections of the clot were prepared and stained for fibrinogen (mouse-antihuman-fibrinogen, Sigma) and VWF (rabbit-antihuman-VWF, Chemicon). Isotype control antibodies were used to determine background staining and DNA was labeled fluorescently by Hoechst 33258 (Invitrogen).
molecule,measurement,setting,value
"tPA: tissue plasminogen activator (25 μg/mL, Baxter) for fibrin digestion (protein, UniProt P00750 36-562, looked up) Tissue-type plasminogen …: SYQVICRDEKTQMIYQQHQSWLRPVLRSNRVEYCWCNSGRAQCHSVPVKSCSEPRCFNGGTCQQALYFSDFVCQCPEGFAGKCCEIDTRATCYEDQGISYRGTWSTAESGAECTNWNSSALAQKPYSGRRPDAIRLGLGNHNYCRNPDRDSKPWCYVFKAGKYSSEFCSTPACSEGNSDCYFGNGSAYRGTHSLTESGASCLPWNSMILIGKVYTAQNPSAQALGLGKHNYCRNPDGDAKPWCHVLKNRRLTWEYCDVPSCSTCGLRQYSQPQFRIKGGLFADIASHPWQAAIFAKHRRSPGERFLCGGILISSCWILSAAHCFQERFPPHHLTVILGRTYRVVPGEEEQKFEVEKYIVHKEFDDDTYDNDIALLQLKSDSSRCAQESSVVRTVCLPPADLQLPDWTECELSGYGKHEALSPFYSERLKEAHVRLYPSSRCTSQHLLNRTVTDNMLCAGDTRSGGPQANLHDACQGDSGGPLVCLNDGRMTLVGIISWGLGCGQKDVPGVYTKVTNYLDWIRDNMRP",clot formation,"absence of activated neutrophils (medium), DNase 100 U/mL",prevented clot formation
same,fibrin in clot,presence of PAF-activated neutrophils,removed fibrin
same,clot formation / clot size,"presence of PAF-activated neutrophils, DNase 100 U/mL",did not prevent clot formation; also recorded: reduced clot size
